B1: RNA3-AA (ssRNA)
RNA: UUUUAAUUUU
B2: RNA3-GA (ssRNA)
RNA: UUUUGAUUUU
B3: RNA3-AG (ssRNA)
RNA: UUUUAGUUUU
B4: RNA3-AAxtal (ssRNA)
RNA: UUUUAAUUUU
B5: RNA3-GAxtal (ssRNA)
RNA: UUUUGAUUUU
B6: RNA3-GG (ssRNA)
RNA: UUUUGGUUUU

Legend:
rA3GR8 = rA3GR8 (Macaca mulatta (rhesus macaque), UniProt M1GSK9 1-138+=AEAG+147-383, internal_change); assay: EMSA; EMSA: 10 nM 6-FAM RNA, 50 mM HEPES pH 7.5, 250 mM NaCl, 1 mM DTT, 0.4 U/ul RNase inhibitor, 10% glycerol, on ice 10 min, 8% native PAGE at 4 C; conditions: protein: recombinant; tags: 6xHis-SUMO removed by PreScission protease; label: 6-FAM; single strand
rA3GR8/E259A [1] = molecular target: T1, rA3GR8/E259A (Macaca mulatta (rhesus macaque), UniProt M1GSK9 1-138+=AEAG+147-383, E259A;internal_change); assay: X-ray crystallography; 1:1; EMSA: 10 nM 6-FAM RNA, 50 mM HEPES pH 7.5, 250 mM NaCl, 1 mM DTT, 0.4 U/ul RNase inhibitor, 10% glycerol, on ice 10 min, 8% native PAGE at 4 C; conditions: protein: recombinant; tags: 6xHis-SUMO removed by PreScission protease; single strand
rA3GR8/E259A [2] = molecular target: T1, rA3GR8/E259A; assay: X-ray crystallography; 1.83 A; 1:1; EMSA: 10 nM 6-FAM RNA, 50 mM HEPES pH 7.5, 250 mM NaCl, 1 mM DTT, 0.4 U/ul RNase inhibitor, 10% glycerol, on ice 10 min, 8% native PAGE at 4 C; conditions: protein: recombinant; tags: 6xHis-SUMO removed by PreScission protease; single strand
GST-NCp7 = GST-NCp7 (HIV-1, UniProt P04591 378-432); assay: EMSA; best binder; EMSA: 10 nM 6-FAM RNA, 50 mM HEPES pH 7.5, 250 mM NaCl, 1 mM DTT, 0.4 U/ul RNase inhibitor, 10% glycerol, on ice 10 min, 8% native PAGE at 4 C; conditions: protein: recombinant; tags: N-terminal GST; label: 6-FAM; single strand

Sequence of rA3GR8 (M1GSK9 entry or part of it): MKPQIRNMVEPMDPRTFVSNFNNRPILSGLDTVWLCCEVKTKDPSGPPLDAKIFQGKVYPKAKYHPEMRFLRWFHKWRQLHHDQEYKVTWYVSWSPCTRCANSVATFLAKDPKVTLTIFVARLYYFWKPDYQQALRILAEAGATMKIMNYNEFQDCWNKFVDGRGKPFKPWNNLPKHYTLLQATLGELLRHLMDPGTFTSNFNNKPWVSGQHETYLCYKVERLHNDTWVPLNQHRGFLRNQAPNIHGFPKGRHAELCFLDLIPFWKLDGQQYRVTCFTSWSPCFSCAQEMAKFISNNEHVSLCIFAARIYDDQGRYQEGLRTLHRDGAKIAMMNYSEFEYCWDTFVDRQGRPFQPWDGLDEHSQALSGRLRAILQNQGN
T1 sequence (M1GSK9 entry or part of it E259A/| E259A E259A): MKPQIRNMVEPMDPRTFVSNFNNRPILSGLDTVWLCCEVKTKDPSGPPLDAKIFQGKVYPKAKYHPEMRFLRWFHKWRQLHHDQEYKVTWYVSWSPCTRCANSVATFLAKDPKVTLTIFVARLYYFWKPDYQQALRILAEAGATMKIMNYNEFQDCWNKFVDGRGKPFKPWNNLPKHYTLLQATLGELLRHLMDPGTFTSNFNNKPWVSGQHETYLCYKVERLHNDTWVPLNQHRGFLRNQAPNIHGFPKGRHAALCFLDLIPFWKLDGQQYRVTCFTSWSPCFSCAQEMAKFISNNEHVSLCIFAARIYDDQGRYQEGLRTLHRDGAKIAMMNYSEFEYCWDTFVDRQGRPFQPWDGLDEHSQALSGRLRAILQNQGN

Binder | Kd (rA3GR8) | also measured
B1 | 0.01 µM | –
B2 | 0.047 µM | –
B3 | 0.2 µM | –
B4 | – | binding result (rA3GR8/E259A [1]): binds
B5 | – | binding result (rA3GR8/E259A [2]): binds
B6 | – | binding result (GST-NCp7): binds

— publication PMC9722718, “Structural basis of sequence-specific RNA recognition by the antiviral factor APOBEC3G”
